From patent US20020151471A1 (published 2002) come the findings set out here.

Common to all, as to experiment: TF binding assay; method not stated in the example
The target in assay [1] is T1, Factor VII preparation 5 (recombinant human FVII produced serum-free in CHO clone E11, Example 3) (human, UniProt P08709 61-466, N-linked oligosaccharide chains (Factor VII is normally glycosylated at Asn 145 and Asn 322); 86% of chains contain sialic acid, 21% contain fucosylated antenna).
T1 construct: The preparations differ only in glycoform pattern
T1 sequence (looked up): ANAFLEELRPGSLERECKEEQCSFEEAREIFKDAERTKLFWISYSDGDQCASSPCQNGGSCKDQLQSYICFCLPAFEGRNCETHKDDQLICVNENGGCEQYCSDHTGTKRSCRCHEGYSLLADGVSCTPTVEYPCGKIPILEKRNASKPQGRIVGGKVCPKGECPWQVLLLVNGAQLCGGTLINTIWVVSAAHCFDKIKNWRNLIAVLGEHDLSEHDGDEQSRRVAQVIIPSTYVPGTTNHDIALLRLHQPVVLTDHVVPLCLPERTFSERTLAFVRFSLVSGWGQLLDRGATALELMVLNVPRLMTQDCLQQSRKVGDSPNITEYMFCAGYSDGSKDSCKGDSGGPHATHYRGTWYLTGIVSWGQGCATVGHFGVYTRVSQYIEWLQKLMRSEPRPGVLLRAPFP

The target in assay [2] is T2, Factor VII preparation 1 (recombinant human FVII produced serum-free in CHO clone E11, Example 3) (human, UniProt P08709 61-466, N-linked oligosaccharide chains (Factor VII is normally glycosylated at Asn 145 and Asn 322); 98% of chains contain sialic acid, 6% contain fucosylated antenna).
T2 construct: The preparations differ only in glycoform pattern
T2 sequence (looked up): T1 sequence (looked up)

Assay [3] addresses T3, Factor VII preparation 2 (recombinant human FVII produced serum-free in CHO clone E11, Example 3) (human, UniProt P08709 61-466, N-linked oligosaccharide chains (Factor VII is normally glycosylated at Asn 145 and Asn 322); 94% of chains contain sialic acid, 13% contain fucosylated antenna).
T3 construct: The preparations differ only in glycoform pattern
T3 sequence (looked up): T1 sequence (looked up)

B1: tissue factor (TF) (receptor, UniProt P13726 33-251, looked up)
chain: SGTTNTVAAYNLTWKSTNFKTILEWEPKPVNQVYTVQISTKSGDWKSKCFYTTDTECDLTDEIVKDVKQTYLARVFSYPAGNVESTGSAGEPLYENSPEFTPYLETNLGQPTIQSFEQVGTKVNVTVEDERTLVRRNNTFLSLRDVFGKDLIYTLYYWKSSSSGKKTAKTNTNEFLIDVDKGENYCFSVQAVIPSRTVNRKSTDSPVECMGQEKGEFRE
With B1, the Kd – broadly, a measure of binding affinity in units of concentration – stood at 2.8 nM in assay [1], 2.8 nM in assay [2] and 2 nM in assay [3].
